Assay results as given in patent publication US20230106715A1 (BIOSION, published 2023).
Read-outs that look alike come from different tables or passages of the source.

T1: mouse Siglec15-his protein (mouse)
T1 construct: In house made
T1 chain: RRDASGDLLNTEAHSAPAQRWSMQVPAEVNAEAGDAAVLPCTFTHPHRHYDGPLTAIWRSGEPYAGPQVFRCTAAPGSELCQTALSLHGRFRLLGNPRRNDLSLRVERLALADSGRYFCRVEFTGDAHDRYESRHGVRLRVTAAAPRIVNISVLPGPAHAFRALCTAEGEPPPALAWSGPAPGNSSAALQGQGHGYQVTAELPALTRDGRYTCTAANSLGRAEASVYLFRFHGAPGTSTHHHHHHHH

T2: cynomolgus monkey Siglec15-his protein (cynomolgus monkey)
T2 construct: In house made; also called Cynomolgus Siglec15-his; cynomolgus Siglec15
T2 chain: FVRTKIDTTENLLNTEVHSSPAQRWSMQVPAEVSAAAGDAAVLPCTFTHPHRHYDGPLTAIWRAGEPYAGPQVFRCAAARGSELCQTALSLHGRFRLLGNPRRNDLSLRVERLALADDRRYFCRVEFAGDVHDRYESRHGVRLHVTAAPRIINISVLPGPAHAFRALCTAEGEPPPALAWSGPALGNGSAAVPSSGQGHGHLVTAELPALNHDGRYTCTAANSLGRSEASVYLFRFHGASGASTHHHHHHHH


How the values were obtained:
[1] = target: T1, mouse Siglec15-his protein; assay: indirect ELISA on coated mouse Siglec15-his
[2] = target: T2, cynomolgus monkey Siglec15-his protein; assay: indirect ELISA on coated cynomolgus Siglec15-his
Method: (§1) The anti-Siglec15 antibodies' cross-reactions to cynomolgus or mouse Siglec15 proteins were measured. Briefly, 96-well micro plates were coated with 100 μl of 2 μg/ml cynomolgus Siglec15-his protein (in house made with SEQ ID NO: 21), or 2 μg/ml mouse Siglec15-his protein (in house made with SEQ ID NO: 22) in carbonate/bicarbonate buffer (pH 9.6) for 2 hours at 37° C. ELISA plates were washed once with wash buffer (PBS+0.05% v/v Tween-20, PBST) and then blocked with 200 μl/well blocking buffer (5% w/v non-fatty milk in PBST) overnight at 4° C. Plates were washed 4 times and incubated with 100 μl serially diluted anti-Siglec15 antibodies of the disclosure or controls (starting at 66.7 nM, 5-fold serial dilution in PBST with 2.5% w/v non-fatty milk) for 40 minutes at 37° C. ELISA plates were washed 4 times again and incubated with Peroxidase AffiniPure Goat Anti-Human IgG, F(ab)₂ fragment specific (1:5000 dilution in PBST buffer, Jackson Immunoresearch, Cat #109-035-097, 100 μl/well) for 40 minutes at 37° C. After a final wash, plates were incubated with 100 μl/well TMB (Innoreagents, Cat #TMB-S-002). The reaction was stopped 4 minutes later at room temperature with 50 μl 1M H₂SO₄, and the absorbance of each well was read on a microplate reader using dual wavelength mode with 450 nm for TMB and 630 nm as the reference wavelength, then the OD (450-630) values were plotted against antibody concentration. Data was analyzed using Graphpad Prism software and EC₅₀ values were reported.

[3] = target: T3, human Siglec15-Fc protein (human); assay: competitive ELISA: coated human Siglec15-Fc, blocked ligand biotin-labeled human LRRC4C-Fc
T3 construct: In house made; also called recombinant human Siglec15 protein with human IgG1 Fc at the C-terminus
T3 sequence (chain, as listed by the source limits assumed): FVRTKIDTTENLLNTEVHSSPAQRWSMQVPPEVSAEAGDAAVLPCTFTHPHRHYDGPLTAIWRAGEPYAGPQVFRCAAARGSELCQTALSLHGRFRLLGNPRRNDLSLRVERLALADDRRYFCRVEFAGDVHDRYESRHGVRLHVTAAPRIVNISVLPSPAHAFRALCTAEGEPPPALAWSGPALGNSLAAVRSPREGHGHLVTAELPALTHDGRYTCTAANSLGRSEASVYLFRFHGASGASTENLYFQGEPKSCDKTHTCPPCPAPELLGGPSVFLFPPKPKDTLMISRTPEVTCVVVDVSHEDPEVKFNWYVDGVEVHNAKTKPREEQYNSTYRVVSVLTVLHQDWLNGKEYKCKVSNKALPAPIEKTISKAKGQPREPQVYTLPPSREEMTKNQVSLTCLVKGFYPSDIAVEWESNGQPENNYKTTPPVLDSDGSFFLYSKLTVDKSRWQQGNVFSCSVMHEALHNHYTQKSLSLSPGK
Method: Serially diluted anti-Siglec15 antibodies or the controls (starting at 66.67 nM with a 5-fold serial dilution) in PBST with 2.5% w/v non-fatty milk were added to the Siglec15-Fc bound plates, 100 μl per well, and incubated with the human Siglec15-Fc protein at 37° C. for 40 minutes. Plates were washed 4 times again using wash buffer, then added and incubated for 40 minutes at 37° C. with 100 μl/well 290 ng/ml biotin-labeled human LRRC4C-Fc protein (prepared in-house with SEQ ID NO: 23). Plates were washed again using wash buffer. Thereafter, the plates were added with 100 μl/well streptavidin conjugated HRP (1:5000 dilution in PBST buffer, Jackson Immunoresearch, Cat #016-030-084) and incubated for 40 minutes at 37° C. Plates were washed again using wash buffer. Finally, TMB was added and the reaction was stopped using 1M H₂SO₄, and the absorbance of each well was read on a microplate reader using dual wavelength mode with 450 nm for TMB and 630 nm as the reference wavelength, then the OD (450-630) values were plotted against antibody concentration. Data was analyzed using Graphpad Prism software and IC₅₀ values were reported.
The mouse anti-Siglec15 antibodies of the disclosure were also tested in ligand blocking ELISA and benchmark blocking ELISA following the protocols described above.

[4] = target: T1, mouse Siglec15-his protein; assay: indirect ELISA on coated mouse Siglec15-his
Method: as §1

| EC50 [1] [nM] | EC50 [2] [nM] | IC50 [3] [nM] | EC50 [4] [nM] | Binder |
| --- | --- | --- | --- | --- |
| 0.994 | 0.197 | 0.868 | – | B2D7H7A3C1 (antibody, V domains shown, Mouse monoclonal antibody from hybridoma; also called mouse B2D7H7A3C1) VH: QVQLQQSGAELVRPGTSVQMSCKAAGYTFTNYWIGWVKQRPGHGLEWVGDIHPGINYTNNNEKFRGKATLTADTSSNTAYMQLRGLTSDDSAIYYCARVDYDYDGSYIMDYWGQGTSVTVSS VL: QIVLSQSPALLSASPGEKVTMTCRASSSVSYMYWYQQKPGSSPKPWIYATSNLTSGVPARFSGSGSGTSYSLTISRVEAEDAATYFCQQWNSKPWTFGGGSKLEIR |
| 0.408 | 0.146 | 0.954 | – | B2G12H3E8 (antibody, V domains shown, Mouse monoclonal antibody from hybridoma; also called mouse B2G12H3E8) VH: QVQLKQSGAELVRPGTSVQMSCKAVGYTFTNYWIGWVKQRPGHGLEWVGDIHPGINYTNNNEKFRGKATLTADTSSSTAYMQLRGLTSDDSAIYYCARVDYDYDGSYIMDYWGQGTSVTVSS VL: QIVLSQSPALLSASPGEKVTMTCRASSSVSYMYWYQQKPGSSPKPWIYATSNLTSGVPARFSGSGSGTSYSLTISRVEAEDAATYFCQQWNSKPWTFGGGSKLEIR |
| 0.651 | 0.179 | 1.04 | – | B2H2H1H7 (antibody, V domains shown, Mouse monoclonal antibody from hybridoma; also called mouse B2H2H1H7; B2H2H1A7) VH: QVQLQQSGAELVRPGTSVQMSCKAAGYTFTNYWIGWVKQRPGHGLEWVGDIHPGINYTNNNEKFRGKATLTADTSSSTAYMQLRGLTSDDSAIYYCARVDYDYDGSYIMDYWGQGTSVTVSS VL: QIILSQSPALLSASPGEKVTMTCRASSSVSYMYWYQQKPGSSPKPWIYATSNLTSGVPARFSGSGSGTSYSLTISRVEAEDAATYFCQQWNSKPWTFGGGSRLEIR |
| 0.211 | 0.201 | 1.57 | 0.361 | anti-Siglec15 benchmark (ch5G12) (antibody, human IgG1, kappa, V domains shown, ch5G12 (US 20190202912A1); also called BM; Siglec15-ch5G9) VH: QVQLQQPGAELVKPGASVKMSCKASGYTFTSYWITWVIQRPGQGLEWIGDIYCGSDTMHYNEKFKNKATLTVDTSSSTAYMQLSSLTSEDSAVYYCARWWDYGSSYDYFDYWGQGTTLTVSS VL: DIKMTQSPSSMYASLGERVTITCKASQDINSYLSWFQQKPGKSPKTLIYRANRLVDGVPSRFSGSGSGQDYSLTISSLEYEDMGIYYCLQYDEFPYTFGGGTKLEIKR |
| – | – | – | 0.26 | A2A5C7E8 (antibody, V domains shown, Fully human antibody from transgenic mouse hybridoma; also called A2A5C7E8-1) VH: EVQLVQSGAEVKKPGESLRISCKGSGYSFTTYWISWVRQMPGKGLEWMGLIDPSDSYTNYSPSFQGHVTISTDKSISTAYLQWSSLKASDTAMYYCARGGYYGSEEDYWGQGTLVTVSS VL: EIVLTQSPGTLSLSPGERATLSCRASQSVSSSRLAWFQQKSGQAPRLLIFDASSRATGIPDRFSGSGSGTDFTLTISRLEPEDFAVYYCQQYGSSPRTFGQGTKVEFK |
| – | – | – | 0.329 | A1E10G7H9 (antibody, V domains shown, Fully human antibody from transgenic mouse hybridoma) VH: QVQLQESGPGLVKPSGTLSLTCAVSGGSISSSNWWHWVRQPPGKGLEWIGEIYHSGNTNYKPSLKSRVTISVDKSKNQFSLKLSSVTAADTAVYYCARDEGNGWSNAFDIWGQGTMVTVSS VL: ENVLTQSPGTLSLSPGERVTLSCRASQSVSSSYLAWYQQKPGQAPRFLIYGASGGATGIPDRFSGSGSGTDFTLTISRLEPEDFAVYYCQQYGSSPITFGQGTRLEIK |
